Assay results: the RNAGym collection of RNA variant scans (doi:10.7554/elife.80360)

B1: HDV Ribozyme (parent)
chain: GGCCGGCAUGGUCCCAGCCUCCUCGCUGGCGCCGGCUGGGCAACAUUCCGAGGGGACCGUCCCCUCGGUAAUGGCGAAUGGGACCCA

Variants of: B1
Experiment: self-cleavage, relative activity (ratio to wild type); higher = more cleavage; co-transcriptional

Variant | self-cleavage
GGCCGGCAUGGUCCCAGCCUCCUCGCUGGCGCCGGCUGGGCAACAUUACGAGGGGACCGUCCCCUCGGUAAUGGCGAAUGGGCCCCA [C48A A83C] | 0.317
GGCCGGCAUGGUCCCAGCCUCCUCGCUGGCGCCGGCUGGGCAACAUUACGAGGGGACCGUCCCCUCGGUAAUGGCGAAUGGGGCCCA [C48A A83G] | 0.791
GGCCGGCAUGGUCCCAGCCUCCUCGCUGGCGCCGGCUGGGCAACAUUGCGAGGGGACCGUCCCCUCGGUACUGGCGAAUGGGACCCA [C48G A71C] | 1.03
GGCCGGCAUGGUCCCAGCCUCCUCGCUGGCGCCGGCUGGGCAACAUUACGAGGGGACCGUUCCCUCGGUAAUGGCGAAUGGGACCCA [C48A C61U] | 0.911
GGCCGGCAUGGUCCCAGCCUCCUCGCUGGCGCCGGCUGGGCAACAUUACGAGGGGACCGUGCCCUCGGUAAUGGCGAAUGGGACCCA [C48A C61G] | 1.03
GGCCGGCAUGGUCCCAGCCUCCUCGCUGGCGCCGGCUGGGCAACAUUACGAGGGGGCCGUCCCCUCGGUAAUGGCGAAUGGGACCCA [C48A A56G] | 1.2
GGCCGGCAUGGUCCCAGCCUCCUCGCUGGCGCCGGCUGGGCAACAUUACGAGGGGACCCUCCCCUCGGUAAUGGCGAAUGGGACCCA [C48A G59C] | 1.15
GGCCGGCAUGGUCCCAGCCUCCUCGCUGGCGCCGGCUGGGCAACAUUACGAGGGGACCUUCCCCUCGGUAAUGGCGAAUGGGACCCA [C48A G59U] | 1.11
GGCCGGCAUGGUCCCAGCCUCCUCGCUGGCGCCGGCUGGGCAACAUUACGAGGGGACCGUCCCCUCGGUAAUUGCGAAUGGGACCCA [C48A G73U] | 0.422
GGCCGGCAUGGUCCCAGCCUCCUCGCUGGCGCCGGCUGGGCAACAUUACGAGGGGACCGUCCCCUCGGUAAUCGCGAAUGGGACCCA [C48A G73C] | 0.618
GGCCGGCAUGGUCCCAGCCUCCUCGCUGGCGCCGGCUGGGCAACAUUACGAGGGGACCGUCCCCUCGGUAAUGGCGAAUGGGACUCA [C48A C85U] | 1.16
GGCCGGCAUGGUCCCAGCCUCCUCGCUGGCGCCGGCUGGGCAACAUUACGAGGGGACCGUCCCCUCGGUAAUGGCGAAUGGGACGCA [C48A C85G] | 0.867
GGCCGGCAUGGUCCCAGCCUCCUCGCUGGCGCCGGCUGGGCAACAUUACGAGGGGACCGUCCCCUCGGUAAUGGCGAAUGGGACACA [C48A C85A] | 0.717
GGCCGGCAUGGUCCCAGCCUCCUCGCUGGCGCCGGCUGGGCAACAUUACGAGGGGACCGUCCCCUCGGUAAUGGCGAAUGGUACCCA [C48A G82U] | 0.496
GGCCGGCAUGGUCCCAGCCUCCUCGCUGGCGCCGGCUGGGCAACAUUACGAGGGGACCGUCCCCUCGGUAAUGGCGAAUGGAACCCA [C48A G82A] | 0.332
GGCCGGCAUGGUCCCAGCCUCCUCGCUGGCGCCGGCUGGGCAACAUUACGAGGGGACCGUCGCCUCGGUAAUGGCGAAUGGGACCCA [C48A C62G] | 0.359

Variant | self-cleavage
GGCCGGCAUGGUCCCAGCCUCCUCGCUGGCGCCGGCUGGGCAACAUUACGAGGGGACCGUCCCCUCGGUAAGGGCGAAUGGGACCCA [C48A U72G] | 0.525
GGCCGGCAUGGUCCCAGCCUCCUCGCUGGCGCCGGCUGGGCAACAUUACGAGGGGACCGUCCCCUCGGUAAAGGCGAAUGGGACCCA [C48A U72A] | 0.456
GGCCGGCAUGGUCCCAGCCUCCUCGCUGGCGCCGGCUGGGCAACAUUACGAGGGGACCGUCCCCUCGGUAAUGGCGAAUGGGACCCG [C48A A87G] | 0.955
GGCCGGCAUGGUCCCAGCCUCCUCGCUGGCGCCGGCUGGGCAACAUUACGAGGGGACCGUCCCCUCGGUAGUGGCGAAUGGGACCCA [C48A A71G] | 0.791
GGCCGGCAUGGUCCCAGCCUCCUCGCUGGCGCCGGCUGGGCAACAUUACGAGGGGACGGUCCCCUCGGUAAUGGCGAAUGGGACCCA [C48A C58G] | 1.12
GGCCGGCAUGGUCCCAGCCUCCUCGCUGGCGCCGGCUGGGCAACAUUACGAGGGGACAGUCCCCUCGGUAAUGGCGAAUGGGACCCA [C48A C58A] | 0.831
GGCCGGCAUGGUCCCAGCCUCCUCGCUGGCGCCGGCUGGGCAACAUUACCAGGGGACCGUCCCCUCGGUAAUGGCGAAUGGGACCCA [C48A G50C] | 1.11
GGCCGGCAUGGUCCCAGCCUCCUCGCUGGCGCCGGCUGGGCAACAUUACAAGGGGACCGUCCCCUCGGUAAUGGCGAAUGGGACCCA [C48A G50A] | 0.969
GGCCGGCAUGGUCCCAGCCUCCUCGCUGGCGCCGGCUGGGCAACAUUACUAGGGGACCGUCCCCUCGGUAAUGGCGAAUGGGACCCA [C48A G50U] | 1.17
GGCCGGCAUGGUCCCAGCCUCCUCGCUGGCGCCGGCUGGGCAACAUUACGAGGGGACCGUCCCCUCGGUAAUGGCGAAUGGGACCAA [C48A C86A] | 0.831
GGCCGGCAUGGUCCCAGCCUCCUCGCUGGCGCCGGCUGGGCAACAUUACGAGGGGACCGUCCCCUCGGUAAUGGCGAAUGGGACCUA [C48A C86U] | 0.923
GGCCGGCAUGGUCCCAGCCUCCUCGCUGGCGCCGGCUGGGCAACAUUACGAGGGGACCGUCCCCUCGGUAAUGGUGAAUGGGACCCA [C48A C75U] | 0.339
GGCCGGCAUGGUCCCAGCCUCCUCGCUGGCGCCGGCUGGGCAACAUUACGAGGGGACCGUCCCCUCGGUAAUGGAGAAUGGGACCCA [C48A C75A] | 0.326
GGCCGGCAUGGUCCCAGCCUCCUCGCUGGCGCCGGCUGGGCAACAUUACGAGGGGACCGUCCCCUCGGUAAUGGGGAAUGGGACCCA [C48A C75G] | 0.142
GGCCGGCAUGGUCCCAGCCUCCUCGCUGGCGCCGGCUGGGCAACAUUACGAGGGGACCGUCCCCUCUGUAAUGGCGAAUGGGACCCA [C48A G67U] | 1.03
GGCCGGCAUGGUCCCAGCCUCCUCGCUGGCGCCGGCUGGGCAACAUUACGAGGGGACCGUCCCCUCAGUAAUGGCGAAUGGGACCCA [C48A G67A] | 1.04
